Experimental data: paper PMC3423979 (Nature chemical biology, 2012)
One block for each molecule: values may come before it. Where no end group is shown, it is not given here. [ ]: non-standard residue; d: D form. pY = N[C@@H](Cc1ccc(OP(=O)(O)O)cc1)C(=O)O

Tests used:
[1] = molecular target: CrkL SH2 (residues 1–105) (human) (UniProt P46109); assay: ITC
[2] = molecular target: full-length CrkL (residues 1–303) (human) (UniProt P46109); assay: ITC
[3] = molecular target: full-length CrkL (residues 1–303) (human, UniProt P46109 1-303); assay: NMR titration
[4] = molecular target: CrkL SH3^N (residues 120–188) (human, UniProt P46109 120-188); assay: ITC
[5] = molecular target: phosphorylated (pTyr207) CrkL (human, UniProt P46109 1-303, phosphotyrosine at 207 (pTyr207)); assay: ITC
[6] = molecular target: CrkL SH2 (residues 1–105) (human, UniProt P46109 1-105); assay: ITC
Chain of CrkL SH2 (residues 1–105) (P46109 1-105): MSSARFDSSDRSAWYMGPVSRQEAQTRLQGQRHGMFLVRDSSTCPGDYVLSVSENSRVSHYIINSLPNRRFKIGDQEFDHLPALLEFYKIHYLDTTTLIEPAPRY

Chain of full-length CrkL (residues 1–303) (human) (P46109 whole entry, the tested form may be a part): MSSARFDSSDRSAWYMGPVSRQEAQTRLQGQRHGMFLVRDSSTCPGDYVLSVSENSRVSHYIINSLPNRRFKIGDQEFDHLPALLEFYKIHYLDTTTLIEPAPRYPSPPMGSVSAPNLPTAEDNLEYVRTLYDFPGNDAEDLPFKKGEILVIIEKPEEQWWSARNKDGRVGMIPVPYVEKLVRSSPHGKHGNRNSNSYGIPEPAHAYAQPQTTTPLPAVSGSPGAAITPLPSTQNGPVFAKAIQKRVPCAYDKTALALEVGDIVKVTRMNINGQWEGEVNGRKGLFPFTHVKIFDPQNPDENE
Chain of full-length CrkL (residues 1–303) (P46109 whole entry, the tested form may be a part): as above
Chain of phosphorylated (pTyr207) CrkL (P46109 whole entry, the tested form may be a part): as above
Chain of CrkL SH3^N (residues 120–188) (P46109 120-188): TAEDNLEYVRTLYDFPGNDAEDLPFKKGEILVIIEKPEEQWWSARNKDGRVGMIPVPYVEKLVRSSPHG
Chain of CrkL SH2 (residues 1–105) (human) (P46109 1-105): as the sequence (P46109 1-105) above

Kd [1]: 7 µM
Kd [2]: 23 µM
Molecule: CrkL-pTyr207-peptide

binding result [3]: binds
binding result [4]: binds
binding result [5]: binds
B1: PPII-peptide (peptide)
peptide: YLQAPELPTKTRTS

binding result [6]: binds
B2: FGFR-pTyr-peptide (peptide)
peptide: AGVSE[pY]ELPEDPR
